T1: Murine APRIL (mouse, UniProt Q9D777 105-241, limits assumed)
T1 sequence (looked up): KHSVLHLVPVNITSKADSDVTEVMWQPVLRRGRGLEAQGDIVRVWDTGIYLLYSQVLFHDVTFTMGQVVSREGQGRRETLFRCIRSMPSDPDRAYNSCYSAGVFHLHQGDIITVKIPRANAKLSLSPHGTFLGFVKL


What was measured:
human BAFF = human BAFF (human, UniProt Q9Y275 82-285, limits assumed); test: NNS library, phage display;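 further: ligand versus display occurrence-to-degeneracy ratio and higher means enriched by binding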
Protocol: (§1) This new phage library was subjected to sorting against either BAFF, APRIL or the display target antibody. After 3 rounds of sorting, approximately 48 clones were picked from each selection and the DNA sequences of the phage clones were determined. […] The normalized F′ value corrects for display bias and is calculated as the percent occurrence to percent degeneracy ratio for ligand selection divided by the percent occurrence to percent degeneracy ratio for display efficiency. Percent occurrence is calculated by dividing the number of times a particular amino acid appeared at a particular position by the total number of amino acids sequenced at that position followed by multiplying by 100. Percent degeneracy is calculated by dividing the degeneracy in code for a particular amino acid divided by the total degeneracy possible at that position followed by multiplying by 100 (e.g., if only A, G and I were selected, total degeneracy possible would be 5).

Murine APRIL = molecular target: T1, Murine APRIL; test: NNS library, phage display;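 further: ligand versus display occurrence-to-degeneracy ratio and higher means enriched by binding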
Protocol: as §1

Chain of human BAFF (Q9Y275 82-285 limits assumed): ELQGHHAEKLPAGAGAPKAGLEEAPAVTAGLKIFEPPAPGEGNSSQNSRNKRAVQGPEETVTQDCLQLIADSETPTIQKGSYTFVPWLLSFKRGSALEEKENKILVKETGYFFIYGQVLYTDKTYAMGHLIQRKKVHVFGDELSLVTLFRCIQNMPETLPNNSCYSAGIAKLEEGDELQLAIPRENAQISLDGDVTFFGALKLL

Row | Binder | F' BAFF (human BAFF) | F' APRIL (Murine APRIL)
1 | SLSCRKEQGKFYDHLLRDCISCASDCGQHPKQCAYFCENKLR (receptor, phage library variant, format as m9) [TACI_d2 I92D] | 0 | 0
2 | SLSCRKEQGKFYDHLLWDCISCASICGQHPKQCAYFCENKLR (receptor, phage library variant, format as m9) [TACI_d2 R84W] | 0 | 9
3 | SLSCRKEQGKFYDHLLVDCISCASICGQHPKQCAYFCENKLR (receptor, phage library variant, format as m9) [TACI_d2 R84V] | 2 | 4
4 | SLSCRKEQGKFYDHLLRDCISCASHCGQHPKQCAYFCENKLR (receptor, phage library variant, format as m9) [TACI_d2 I92H] | 0 | 0
5 | SLSCRKEQGKFYDHLLFDCISCASICGQHPKQCAYFCENKLR (receptor, phage library variant, format as m9) [TACI_d2 R84F] | 7 | 9
6 | SLSCRKEQGKFYDHLLRDCISCASECGQHPKQCAYFCENKLR (receptor, phage library variant, format as m9) [TACI_d2 I92E] | 0 | 0
7 | SLSCRKEQGKFYDHLLLDCISCASICGQHPKQCAYFCENKLR (receptor, phage library variant, format as m9) [TACI_d2 R84L] | 2 | 3
8 | SLSCRKEQGKFYDHLLDDCISCASICGQHPKQCAYFCENKLR (receptor, phage library variant, format as m9) [TACI_d2 R84D] | 0 | 9
9 | SLSCRKEQGKFYDHLLRDCISCASPCGQHPKQCAYFCENKLR (receptor, phage library variant, format as m9) [TACI_d2 I92P] | 0 | 0
10 | SLSCRKEQGKFYDHLLRDCISCASWCGQHPKQCAYFCENKLR (receptor, phage library variant, format as m9) [TACI_d2 I92W] | 0 | 0
11 | SLSCRKEQGKFYDHLLRDCISCASSCGQHPKQCAYFCENKLR (receptor, phage library variant, format as m9) [TACI_d2 I92S] | 0 | 0
12 | SLSCRKEQGKFYDHLLTDCISCASICGQHPKQCAYFCENKLR (receptor, phage library variant, format as m9) [TACI_d2 R84T] | 3 | 0
13 | SLSCRKEQGKFYDHLLRDCISCASMCGQHPKQCAYFCENKLR (receptor, phage library variant, format as m9) [TACI_d2 I92M] | 0 | 0
14 | SLSCRKEQGKFYDHLLRDCISCASFCGQHPKQCAYFCENKLR (receptor, phage library variant, format as m9) [TACI_d2 I92F] | 0 | 0
15 | SLSCRKEQGKFYDHLLEDCISCASICGQHPKQCAYFCENKLR (receptor, phage library variant, format as m9) [TACI_d2 R84E] | 0 | 3
16 | SLSCRKEQGKFYDHLLRDCISCASRCGQHPKQCAYFCENKLR (receptor, phage library variant, format as m9) [TACI_d2 I92R] | 0 | 0

Row | Binder | F' BAFF (human BAFF) | F' APRIL (Murine APRIL)
17 | SLSCRKEQGKFYDHLLYDCISCASICGQHPKQCAYFCENKLR (receptor, phage library variant, format as m9) [TACI_d2 R84Y] | 1 | 0
18 | SLSCRKEQGKFYDHLLRDCISCASNCGQHPKQCAYFCENKLR (receptor, phage library variant, format as m9) [TACI_d2 I92N] | 0 | 0
19 | SLSCRKEQGKFYDHLLMDCISCASICGQHPKQCAYFCENKLR (receptor, phage library variant, format as m9) [TACI_d2 R84M] | 7 | 18
20 | SLSCRKEQGKFYDHLLRDCISCASGCGQHPKQCAYFCENKLR (receptor, phage library variant, format as m9) [TACI_d2 I92G] | 0 | 0
21 | SLSCRKEQGKFYDHLLNDCISCASICGQHPKQCAYFCENKLR (receptor, phage library variant, format as m9) [TACI_d2 R84N] | 1 | 0
22 | SLSCRKEQGKFYDHLLSDCISCASICGQHPKQCAYFCENKLR (receptor, phage library variant, format as m9) [TACI_d2 R84S] | 0 | 0
23 | SLSCRKEQGKFYDHLLCDCISCASICGQHPKQCAYFCENKLR (receptor, phage library variant, format as m9) [TACI_d2 R84C] | 0 | 0
24 | SLSCRKEQGKFYDHLLHDCISCASICGQHPKQCAYFCENKLR (receptor, phage library variant, format as m9) [TACI_d2 R84H] | 1 | 0
25 | SLSCRKEQGKFYDHLLQDCISCASICGQHPKQCAYFCENKLR (receptor, phage library variant, format as m9) [TACI_d2 R84Q] | 0 | 0
26 | SLSCRKEQGKFYDHLLRDCISCASKCGQHPKQCAYFCENKLR (receptor, phage library variant, format as m9) [TACI_d2 I92K] | 0 | 0
27 | SLSCRKEQGKFCDHLLRDCISCASICGQHPKQCAYFCENKLR (receptor, phage library variant, format as m9) [TACI_d2 Y79C] | 0 | 0
28 | SLSCRKEQGKFYDHLLRDCISCASQCGQHPKQCAYFCENKLR (receptor, phage library variant, format as m9) [TACI_d2 I92Q] | 0 | 0
29 | SLSCRKEQGKFYDHLLIDCISCASICGQHPKQCAYFCENKLR (receptor, phage library variant, format as m9) [TACI_d2 R84I] | 0 | 0
30 | SLSCRKEQGKFYDHLLKDCISCASICGQHPKQCAYFCENKLR (receptor, phage library variant, format as m9) [TACI_d2 R84K] | 1 | 0
31 | SLSCRKEQGKFYDHLLRDCISCASLCGQHPKQCAYFCENKLR (receptor, phage library variant, format as m9) [TACI_d2 I92L] | 0 | 2
32 | SLSCRKEQGKFYDHLLRDCISCASYCGQHPKQCAYFCENKLR (receptor, phage library variant, format as m9) [TACI_d2 I92Y] | 0 | 0
